Results published in the DeepSol protein solubility set.

Experiment: soluble on expression in E. coli; label from the status in PepcDB or PDB records

| Sequence | soluble on expression in E. coli |
| --- | --- |
| MGSDKIHHHHHHMRLPPIDLSRENTFGEISYESGGQYGPIRGDYLAFIIVHLGTLKIEADETVLQLEAGHCALSLTRDSYLTTIAPETLTHISWCDGRPLNAAWLYKERHKYAPFINASTQVQTLMQLGVDLGIGDRDGRGGLREALTNTLLNAYIYEAEVVAEERPIPQTILQARRFLDENFAADVSIERVAQQVRVSPQYLVSAFKKHLGMTPARYLWRCRLDYGAHLLQRSGLSVSEIAYQVGYKNPYHFSRQIKLAFDCSPTELREKMLNG | not soluble |
| MGSDKIHHHHHHMRLRHIEIFHAIYTTGSITNAAKILHVSQPSVSKVLSHAEMQLGFDLFERVKGRLTPTDEAEMLFDEVDKIYQQMRSIKNTAENIKKSEYGQINIAGSPALGFDVIPSAIAKYHHKHHQVNFNVQTVHNDAVMQTLLEHKCDLAILFAPNVMPGVTSIELAQSELVIVYPKVSFPDCPKELTLNQLKEFEYIDIGDSGPLADLLWTRMMKDNISLEALIKVQTYFIAARLVAQGVGICVVDRFTAEGNLSDNTAIASFNPPLTFPVKALYLENKSLSKVSQEFLSYLTTEFSDDSK | not soluble |
| MGSDKIHHHHHHMRNELPPENAYRILESGPIVLVSTRGADGRANLMTMGFHMMMQHEPPLVGAIIGPWDYSHQALSETGECVLAVPTVDLAETVVDIGNCSGDALDKFGHFGLTPVPAQTVDAPLVRQCWANLECRVVDDGWARRYNLWVLEVQRIWIDTARKETRLIHHQGDGRFSVDGDTLDLGERMTKWRHLMG | not soluble |
| MGSDKIHHHHHHMRNITVPSNYFHTRERLGALGGIVQHHTALYRSVAVYEPTVVIVRRGCKKLRWAGRELRIAAGEAVGLAGGQTLDVINIPDSDGLYQAQWIAFEQETVERFAAQYGTAQAVCDAVKLPHPGRMGAAFDYAAAVLADEEVPHNAAEAALCGVLAWLQHDGIGFAVYGGVNLMRQIRKLITADMAADWSSAMLAQRLNCSEAALRRRLARQDTNFRTLLTDVRMMRALTLLQVTQWSVAQIAGAVGYDCPSRFSARFKELFGCVPSVVRSEAEPAAYRRTGQVSVGVRP | not soluble |
| MGSDKIHHHHHHMRNLNEKMKDIFERSVEDIKERNQNLLRPEHILLQILYDENEATKVLKDLNVNVEEVITELEDYIDSQYGIYYGFSDQVYVSKELSYILELARKEARLFKQKDIGPLHFLLGLLRDGSTHAARVLKKYGVDYEKVLQTVKEHEEEYAAEQSPLTAFATDLTKLAKEGKVGPIIGRDREIERVIEILMRKTKNNPILIGDPGVGKTAIVEGLAQRIVEGKVPDPLKDVRILMVDLGRMIAGTKYRGEFEERLKSFLDEVMKQKEKTILFIDEIHTLVGAGAAEGAMDAANMLKPALARGEIRVIGATHWMSTENT | not soluble |
| MGSDKIHHHHHHMRNQSKMPLVERLDAHAKSCPISLHVPGHKSGAIYPDAWQKFLKWDVTEITGMDDLHHPEDVILEAEELLAECYGSKKSYFLVNGTSGGSLAVIMATLKHGEKVLVPRDAHKSILHGIELAGGEPIFLTPATNKEVGVASGVTTELLEETLHNHPDIKLCIFTYPSYYGTTFNLHKCIQIAHDFGAVVFVDEAHGAHFLTSSEFPKSAVELGADVVVQSAHKTLPALTMGSYLHVVNDLPIFEKLPYYLQVFQTSSPSYLIMASLDAARKYAATYTAADVEAFWKMRARWIKWLTKNKFDVILPDDPLKIIVRKTGYTGYELQAIFEESSYFPELADESQVLLILPLIKKGIDFTPISRIHSPVKKEIAKEPYEMSAPFASGLALTYEEMHARATEFVLLDEATTRVSAETISLYPPGIPAIIRGESITEKHIRELKNIRTRHYQGGEKLAENYIRVFR | not soluble |
| MGSDKIHHHHHHMRRADRLFQIVQILRHRRLTTAKQLAERLEVSSRTIYRDIQDLCLSGIPIEGEAGVGYLLRQEVNVPPLMFNEQELEAIQVGMRMVQAQGGHELASAAKQAMIKVEAVLPERLKAYQSLMFAPDFYSEGQLFSFLDLLRRTSREREYILLSYQDGKQSSSERQVRPLALYYWQGVWTLLAWCELRGDFRNFRVDRIVGVLPLGSHFQHTPGQEMPDYIAMMQAQYGEC | not soluble |
| MGSDKIHHHHHHMRRIKIFDTTLRDGEQSPGASMSIEEKVEMALMLEDLGVDLIEAGFPVSSPVQFEAVKRVASAVQKPIVVGLARCVEKDIDAAYEALKDRPKDKRMIHVFIATSPIHRKYKLRMEKEEILERIRRYVGYAKQFFDLVEFSAEDASRTEVPFLIEAYKTAIEAGATTINVPDTVGYALPDEFGELIKTLREGVPGIENVDLSVHCHNDLGLAVANSLAAVQNGATQVEVTLNGIGERAGNCALEEFVMILKVRKDKLPYETGIKTELIYPASRLLTHITGLIPSRNKPIVGENVFLHESGIHQDGVLKHRETYEIMKPSDIGRSSETLVLGRHSGKHALRKKLETYGIKLDEETFQKVFEKFTELADRKKEVYDDDLFSIVSEVLREPINGYKLVHFHVHTGNTLLPTAAVVLQVGNEKREAAEAGNGPVDAIFKAIDKALGIQPKLEEYIIQAVGTGKNAQGEVKLTLRIDNELYSGRGVSTDIVEASAIAYINAINKYLIAKGLLRKNGGAE | not soluble |
| MGSDKIHHHHHHMRRSKLTPTTPPMFKNLSVYRIQGDWHPAIAEAEASLQKFRFAECGATQAISAGWVEPRGEKHGPLVEAVGDQWMLTLCIQTKLLPAGVIKQHVDARIEQIKQREARRPGKKEVREIKEAVILELLPKAFSKKEHISVWIDRKNKLVAIDTASQSKCDTATSALVKTLDGLAIGLIQTQMSPGTCMSQWLMDGEAPDGFGVERECELKSSDESRSAVKYSRHVLDIDEVKQHLTHGKTPTQLAMTWTDRVSFTLTDAMALKKVTFLETPLMKKKAGGDDPFDANAAIVTGELSQLIPQLIEALGGELEFTGESGEGAREAKSEEREQETAEA | not soluble |
| MGSDKIHHHHHHMRTLKVLHLASFDGNIGDNANHNGVRFLWKKYLPEYDFAITPLEMREYFWKWKSFDDGFADMVNEYDLFVCGGGNYFELWVQSSPTGTSVAIPLEVLRKIKTPCLFYALGLDPYMGAPDICIERFKRFLDYTLASPQFLVSVRNDGSLDSARRVLGGEYADRIHLMPDGGHFVQPEACTHYELTPGARTIGVNLAGDMLDFRFKSCNGKNLNDFKRSTAAVLCDIMRRMPDVNLIFYPHIHKDYSFLADFICGIDDHLLRRRITVAPYLHGQGAERKFFDLYRQCALNIGTRLHANICSVGLKTPSIGIVTHEQIHELYGYYGMAERALRFSDDNYAAKLDDLISDSLENTERISCRYSDVMSMVTKDAERFLGIMNCWLDSVV | not soluble |
| MGSDKIHHHHHHMRTLTISDEIVPAVYSLNIKQRFADVQLVLACGDLPIYYLEFVVTMLGQPCFYVWGNHDAPEVQADGQVVSYARGATCIEDHVVCHQGLLIGGLGGSIRYKPDGHHQYTETQMMLRVLRMAPRLFLNRLRYGRYLDVLLTHAPPLGIHNGPDYPHRGFLALLRFIQWFRPRYLIHGHIHLSYGFGHATETLYGQTLVINTAGYRVLDLAI | not soluble |
| MGSDKIHHHHHHMRVASPETFASQSYRLLPFRFERVNDDRFLLINEVGEHCYLNCADLNNLVNGYLTTSGKTFQNLESKSFVYSENNNFALRAFSAKYRARKSFLFDGPALHIFVLTLRCENSCEYCQVTRRSPDAVKYDMPLSIAKQAVLRMFESPAENLTVEFQGGEPLLAYDVLKYIVELCIELNITEQKSLQFVVATSLQNINMEMLEFFHLHNVHISTSVDGPQWLHQLNRPNSCSNSYEKTMHGLEMARGVLGHDRIAGMTTITRSSLTAIKTIIDEYVRLGFHSIFLRPLNMYGFAVKKENKVGYSSEDFNKFYEQALKYIIEINQQGYRLDEVNAALALNNILTPQATGYVDMRSPCGDGTGVLVYNYDGKVYPSDESRMLVEMGDESLALGSVSESYQDLMSSSVLNTILHAGIAEALPGCSDCAYLPYCGANPIQNYSRYGDMIGHRTFSAFCAKQKFLYRYVFNLLQDKSNRTVFNSWLPL | not soluble |
| MGSDKIHHHHHHMRVIKVKTISETLDYISKHTASVARFGDGEIDIIAGNSIPYQVYASALAARLERLLNRQSNEKLVICVSDVFDNLGRYNDFSQQFWRDHLYQYNDLYQKNCQAEWYGSTFISRPYMDLLDKSLSVTYFEQLKALWKNKDILIVEGETSRSGVGNDLFNDANTISRIICPSKDAFSSFYEIKETILEHSRGKLILLMLGPTAKLLAEDLSQLGHQAIDLGHIDSEYEWFKMGAVSKVKLSHKHTAEHNFDEDITLIEDNSYENQIVSKIGTSDRQYALTVTLTDDIWELEHLLQRCPNTDFHIAAPVYCSDRLKQLVGYPNYYLHEAITEEQFEVLLLNSDIYLDINHGEEVWNVVDRCITEGKTIYGIRRARKDNQYISFERTMDDFEYLCDTIKQNR | not soluble |
| MGSDKIHHHHHHMSAALSCGTIHGVGLGPGAPDLLSVRSDRLVRGARHVAYFRKAGRPGQARRIVEGMLRPDVIEIPMEYPVTTEIPLSDPRYNDCLSAFYAECTQRLVMLAQAGEDVVVLCEGDPFFYGSFMHLHTRLAGTVPVAVVPGITGMAGAWNATGIPITWGDDVLTIAMATLPEDELVRRIRDTDALVVMKIGRNLPKLRRAVAAAGREDAAWLVEHAAMPGQRVTRLIEAETVTPYFSILLIHGQGRRP | not soluble |
| MGSDKIHHHHHHMSAIHIKYPALTFKAGQRALRHIRERGLQAADVGVLPGAAGGPKPLGIQGLDLALFGEWLPSAPRQRALIGASIGAWRFASACLDDPVAGIRRLGELYTEQDFAKGVTPAEISRSCQRMLDDLLEGRDGQLLANPHYRLNILVVKSHGQLAHDHRGRLGLGLGSVVASNLLGRSRLARHFERIILHDGRAAPPLDTLTDFPSRYLPLDLTNLRHALLASGSIPMVMQGVKDIPGAGAGTYRDGGLLDYHLDLPYRGDDLVLYPHFTDKVVPGWFDKALPWRKGDATRLQNVLLMTPSPQYLAALPYGKLPDRNDFKRFMGDAPGRKRYWYKAIAESQRLGDELLELTATGRLHERLQAL | not soluble |
| MGSDKIHHHHHHMSDAMHTLLTASPLLDLHHPEIEALVARRDWLTLSPYDRIGAVYDFVRNEIAFGYNEGDELPASRVLADGIGQCNTKSTLLMALLRAVGIPCRFHGFTIDKPLQKGAITGLAYWLAPQRIIHSWVEVSLEGRWIALEGFILDAPYLASLQRRFPQARRFCGYGAATPDLSAPGVDWRGQDAYIQKEGIADDFGVFDSPDAFYARHGSNLSGVKRWLYERVIRHRMNRNVARVRASKW | not soluble |
| MGSDKIHHHHHHMSDDELLFAEEDPSDNVGEGIGRAPWVILVVDDDTEVHALSRLLLSEIEFKGRRVAMYSAYSAAEARAMLGRIDDVAVILLDVVMETDDAGLKLVRTIRETMNNRDVRIILRTGQPGQAPEREVIETYDINDYKSKTELTAQKLHTALVAALRAYDDIMALVLSRQGLRKILDAAASLYRQRSMELFAAGVLTQINALLGGDRDGILCVQSRKEQADEDDPAGAMVVLAASGAYERLVGKRVDELPESPVISLIREAAASRTSRHGSHASALYMPTGDGRETVVFLHAAEPLKAQDRALMQLFCDNISAGFDTVCEIDDLRRENVRLRARLGEAKAP | not soluble |
| MGSDKIHHHHHHMSDRLDEVDKRILYNLVRDARNTSAPDIADEVNVSAGTIRNRITHLEAAGIIRGYHAVVSYPQVGGRLTNLYICTSPVPDRDRLSKQVAEIPGVVSVRQLMKGRSNLHVTAVGDDMQELTRIANDLSAIGLDIEEENLLQSEEIRPYHEFGPDDSQDGHTIADFMELSGGAEVVELSVAADAEIAGHTLREANERGVIESDVLVVSIERDDEMLTPRGDTRVRPDDLVTVFCRGGISQETLSVFGKRGSATET | not soluble |
| MGSDKIHHHHHHMSDSFDVLWLNASPILKRFDKPLLDYLSGYMRIAQWEYQQTKDEASSIDQAVELLHNFLEWRDRPVHLAGHGMSGAIALTFARRFPQKVRSLTLLSVAAQPANNWQAHYYFQRQLFSISRELVLASTVRSLFGNQPPHTTKKLVAALDKDLEQSPSQHSLFKLVYLPKGGVSMPMMVCGSKSDPVVNPTVLHDWLNWLKPEDKLWECPQGYHFFHYFYPQQVGEEILSFWKRHPSHLLEASALSFSTSTN | not soluble |
